{"source": "paper PMC4883770", "biological_target": "Flag-epitope tagged CncC (Drosophila melanogaster) (UniProt P20482)", "sequence (P20482 whole entry, canonical isoform)": "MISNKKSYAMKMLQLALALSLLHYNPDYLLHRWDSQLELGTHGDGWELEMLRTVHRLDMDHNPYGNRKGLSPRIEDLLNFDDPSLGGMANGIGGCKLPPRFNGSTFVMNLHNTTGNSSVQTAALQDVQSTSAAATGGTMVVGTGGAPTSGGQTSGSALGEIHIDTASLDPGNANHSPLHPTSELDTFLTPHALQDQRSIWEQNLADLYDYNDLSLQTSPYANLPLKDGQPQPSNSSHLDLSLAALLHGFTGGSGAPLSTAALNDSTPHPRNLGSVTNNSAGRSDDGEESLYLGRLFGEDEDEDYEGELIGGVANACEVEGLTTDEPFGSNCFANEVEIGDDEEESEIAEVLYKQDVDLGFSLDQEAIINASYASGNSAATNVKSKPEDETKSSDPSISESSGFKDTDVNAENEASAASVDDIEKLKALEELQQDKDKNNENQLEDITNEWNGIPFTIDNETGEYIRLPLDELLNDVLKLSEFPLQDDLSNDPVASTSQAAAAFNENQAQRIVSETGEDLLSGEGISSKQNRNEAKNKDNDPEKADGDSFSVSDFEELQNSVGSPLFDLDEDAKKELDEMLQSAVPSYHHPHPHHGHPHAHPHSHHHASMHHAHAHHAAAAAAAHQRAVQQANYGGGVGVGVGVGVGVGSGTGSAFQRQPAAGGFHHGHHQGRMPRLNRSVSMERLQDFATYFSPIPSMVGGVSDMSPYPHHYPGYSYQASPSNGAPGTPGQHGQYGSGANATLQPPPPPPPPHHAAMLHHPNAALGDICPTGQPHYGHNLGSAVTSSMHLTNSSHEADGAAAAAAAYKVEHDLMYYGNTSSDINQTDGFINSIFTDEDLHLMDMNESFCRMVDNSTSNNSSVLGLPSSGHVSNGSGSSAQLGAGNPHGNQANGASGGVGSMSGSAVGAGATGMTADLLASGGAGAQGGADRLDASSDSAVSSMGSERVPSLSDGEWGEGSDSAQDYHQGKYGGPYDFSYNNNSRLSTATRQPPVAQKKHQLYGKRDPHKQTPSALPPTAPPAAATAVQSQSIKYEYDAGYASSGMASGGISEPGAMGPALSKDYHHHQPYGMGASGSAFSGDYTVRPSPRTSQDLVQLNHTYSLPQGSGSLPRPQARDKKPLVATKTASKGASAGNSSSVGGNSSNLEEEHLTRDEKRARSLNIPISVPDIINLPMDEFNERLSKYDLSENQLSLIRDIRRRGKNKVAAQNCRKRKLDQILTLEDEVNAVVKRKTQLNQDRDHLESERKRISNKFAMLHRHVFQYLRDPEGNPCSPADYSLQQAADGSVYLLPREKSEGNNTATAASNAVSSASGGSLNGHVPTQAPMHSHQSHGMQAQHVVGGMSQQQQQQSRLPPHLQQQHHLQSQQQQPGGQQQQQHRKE", "data": [{"substance": "Fs(1)h-L, the long isoform of Fs(1)h (female sterile (1) homeotic), P13709 1-2038 (natural protein; acetylated lysines (shown with a generic anti-acetyl lysine antibody; residues not named))", "values": [{"measurement": "ARE-fluc reporter activity in S2 cells treated with 1μM JQ1 for 24 hrs, fold change relative to controls", "value": 6.5, "unit": "fold"}]}]}
